Laboratory results reported in US20110117602A1.

Key:
[1] = target: HLA-DR on Daudi cells (human); test: FACS analysis, PE-labeled L243 on Daudi cells
[2] = target: HLA-DR on M8166 cells (human); test: FACS analysis, PE-labeled L243 on M8166 cells

Chain of L243 mouse monoclonal antibody to HLA-DR α chain (VH): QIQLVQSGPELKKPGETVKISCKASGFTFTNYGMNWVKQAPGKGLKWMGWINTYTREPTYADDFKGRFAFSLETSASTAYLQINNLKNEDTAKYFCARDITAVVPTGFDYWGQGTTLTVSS
Chain of L243 mouse monoclonal antibody to HLA-DR α chain (VL): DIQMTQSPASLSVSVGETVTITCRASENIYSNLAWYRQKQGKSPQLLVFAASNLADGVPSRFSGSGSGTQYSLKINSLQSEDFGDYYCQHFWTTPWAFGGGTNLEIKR

- fluorescence as a fraction of that of S1T cells [1]: 0.1
- fluorescence as a fraction of that of S1T cells [2]: 0.01
Substance: L243 mouse monoclonal antibody to HLA-DR α chain
